Consider three molecules from patent US20230212260A1 (published 2023).

Assay [1] has as its target CD40 (UniProt P25942). Nature of the assay: cell-based or functional assay.
In assay [2] the target is T1, CD27 (UniProt P26842 20-260, limits assumed).
T1 sequence (looked up): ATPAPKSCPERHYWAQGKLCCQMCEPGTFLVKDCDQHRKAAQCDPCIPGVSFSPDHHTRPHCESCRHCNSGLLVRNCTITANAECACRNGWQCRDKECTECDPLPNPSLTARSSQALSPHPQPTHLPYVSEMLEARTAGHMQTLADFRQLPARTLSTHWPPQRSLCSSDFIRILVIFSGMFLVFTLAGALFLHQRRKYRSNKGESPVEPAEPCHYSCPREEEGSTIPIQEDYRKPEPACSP
Nature of the assay: cell-based or functional assay.

For assay [3], the target named is T2, human CEA (human, UniProt P06731 35-685, limits assumed).
T2 sequence (looked up): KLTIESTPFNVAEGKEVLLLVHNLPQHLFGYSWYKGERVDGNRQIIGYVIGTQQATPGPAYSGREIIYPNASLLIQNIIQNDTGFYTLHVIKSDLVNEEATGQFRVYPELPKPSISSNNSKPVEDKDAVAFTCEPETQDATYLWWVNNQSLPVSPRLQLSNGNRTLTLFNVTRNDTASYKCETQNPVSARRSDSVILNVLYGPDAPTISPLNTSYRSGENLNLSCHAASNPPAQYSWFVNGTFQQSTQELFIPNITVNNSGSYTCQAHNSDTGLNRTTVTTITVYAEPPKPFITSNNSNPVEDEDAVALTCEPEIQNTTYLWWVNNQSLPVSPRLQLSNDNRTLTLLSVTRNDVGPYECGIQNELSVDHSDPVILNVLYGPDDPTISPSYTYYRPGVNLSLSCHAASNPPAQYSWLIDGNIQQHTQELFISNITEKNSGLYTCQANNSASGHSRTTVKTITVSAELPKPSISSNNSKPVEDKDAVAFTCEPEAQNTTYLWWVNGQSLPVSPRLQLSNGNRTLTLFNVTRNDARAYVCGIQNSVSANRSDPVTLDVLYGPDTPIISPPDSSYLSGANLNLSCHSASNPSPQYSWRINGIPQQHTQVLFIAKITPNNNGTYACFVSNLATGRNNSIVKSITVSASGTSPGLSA
Nature of the assay: ELISA. On the technique in general: An ELISA detects its analyte on a solid surface through an enzyme-linked reagent.

Chain of CD40 (P25942 21-277 limits assumed): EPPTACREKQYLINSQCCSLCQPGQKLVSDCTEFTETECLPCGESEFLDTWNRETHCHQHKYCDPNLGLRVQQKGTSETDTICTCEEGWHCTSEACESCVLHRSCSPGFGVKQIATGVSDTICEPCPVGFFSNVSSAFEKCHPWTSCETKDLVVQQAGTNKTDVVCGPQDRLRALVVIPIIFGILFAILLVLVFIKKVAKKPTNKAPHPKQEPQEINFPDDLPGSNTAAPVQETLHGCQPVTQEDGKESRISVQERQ

For the molecule Trimeric CD40L (ligand), the immature dendritic cell activation assay, activation level (CD86+ / CD83+), 100 ng/ml, 24 h in assay [1] stood at 46.1%.

B1: aPDL1-scCD27L-SAB (bispecific antibody, human IgG1, kappa)
chain: QSLGWDVAELQLNHTGPQQDPRLYWQGGPALGRSFLHGPELDKGQLRIHRDGIYMVHIQVTLAICSSTTASRHHPTTLAVGICSPASRSISLLRLSFHQGCTIASQRLTPLARGDTLCTNLTGTLLPSRNTDETFFGVQWVRPGSGSGNGSESLGWDVAELQLNHTGPQQDPRLYWQGGPALGRSFLHGPELDKGQLRIHRDGIYMVHIQVTLAICSSTTASRHHPTTLAVGICSPASRSISLLRLSFHQGCTIASQRLTPLARGDTLCTNLTGTLLPSRNTDETFFGVQWVRPGSGSGNGSESLGWDVAELQLNHTGPQQDPRLYWQGGPALGRSFLHGPELDKGQLRIHRDGIYMVHIQVTLAICSSTTASRHHPTTLAVGICSPASRSISLLRLSFHQGCTIASQRLTPLARGDTLCTNLTGTLLPSRNTDETFFGVQWVRPGSGSDKTHTCPPCPAPELLGGPSVFLFPPKPKDTLMISRTPEVTCVVVDVSHEDPEVKFNWYVDGVEVHNAKTKPREEQYSSTYRVVSVLTVLHQDWLNGKEYKCKVSNKALPAPIEKTISKAKGQPREPQVYTLPPCRDELTKNQVSLWCLVKGFYPSDIAVEWESNGQPENNYKTTPPVLDSDGSFFLYSKLTVDKSRWQQGNVFSCSVMHEALHNHYTQKSLSLSPGK
heavy: EVQLLESGGGLVQPGGSLRLSCAASGFTFSSYIMMWVRQAPGKGLEWVSSIYPSGGITFYADTVKGRFTISRDNSKNTLYLQMNSLRAEDTAVYYCARIKLGTVTTVDYWGQGTLVTVSSASTKGPSVFPLAPSSKSTSGGTAALGCLVKDYFPEPVTVSWNSGALTSGVHTFPAVLQSSGLYSLSSVVTVPSSSLGTQTYICNVNHKPSNTKVDKKVEPKSCDKTHTCPPCPAPELLGGPSVFLFPPKPKDTLMISRTPEVTCVVVDVSHEDPEVKFNWYVDGVEVHNAKTKPREEQYSSTYRVVSVLTVLHQDWLNGKEYKCKVSNKALPAPIEKTISKAKGQPREPQVCTLPPSRDELTKNQVSLSCAVKGFYPSDIAVEWESNGQPENNYKTTPPVLDSDGSFFLVSKLTVDKSRWQQGNVFSCSVMHEALHNRFTQKSLSLSPGK
light: QSALTQPASVSGSPGQSITISCTGTSSDVGGYNYVSWYQQHPGKAPKLMIYDVSNRPSGVSNRFSGSKSGNTASLTISGLQAEDEADYYCSSYTSSSTRVFGTGTKVEIKRTVAAPSVFIFPPSDEQLKSGTASVVCLLNNFYPREAKVQWKVDNALQSGNSQESVTEQDSKDSTYSLSSTLTLSKADYEKHKVYACEVTHQGLSSPVTKSFNRGEC
For the molecule B1, in assay [2], the “CD27 Luciferase assay with MDA-MB231 cells, activity against that of scCD27L-Fc” value was ~3 fold.

B2: aCEA-scCD40L (bispecific antibody)
heavy: EVQLLESGGGLVQPGGSLRLSCATSGFTFTDYYMNWVRQAPGKGLEWLGFIGNKANGYTTEYSASVKGRFTISRDKSKSTLYLQMNTLQAEDSAIYYCTRDRGLRFYFDYWGQGTLVTVSSASTKGPSVFPFAPSSKSTSGGTAALGCLVKDYFPEPVTVSWNSGALTSGVHTFPAVLQSSGLYSLSSVVTVPSSSLGTQTYICNVNHKPSNTKVDKKVEPKSCDKTHGSGSSSSSSQIAAHVISEASSKTTSVLQWAEKGYYTMSNNLVTLENGKQLTVKRQGLYYIYAQVTFCSNREASSQAPFIASLSLKSPGRFERILLRAANTHSSAKPCGQQSIHLGGVFELQPGASVFVNVTDPSQVSHGTGFTSFGLLKLGSGSGNGSQIAAHVISEASSKTTSVLQWAEKGYYTMSNNLVTLENGKQLTVKRQGLYYIYAQVTFCSNREASSQAPFIASLSLKSPGRFERILLRAANTHSSAKPCGQQSIHLGGVFELQPGASVFVNVTDPSQVSHGTGFTSFGLLKLGSGSGNGSQIAAHVISEASSKTTSVLQWAEKGYYTMSNNLVTLENGKQLTVKRQGLYYIYAQVTFCSNREASSQAPFIASLSLKSPGRFERILLRAANTHSSAKPCGQQSIHLGGVFELQPGASVFVNVTDPSQVSHGTGFTSFGLLKL
light: QTVLTQSPSSLSVSVGDRVTITCRASSSVTYIHWYQQKPGLAPKSLIYATSNLASGVPSRFSGSGSGTDYTFTISSLQPEDIATYYCQHWSSKPPTFGQGTKVEVKRTVAAPSVFIFPPSDEQLKSGTASVVCLLNNFYPREAKVQWKVDNALQSGNSQESVTEQDSKDSTYSLSSTLTLSKADYEKHKVYACEVTHQGLSSPVTKSFNRGEC
For the molecule B2, in assay [3], the binding result was “binds”.
